In paper doi:10.1101/2022.04.24.489327:

Target: LRRK2 wild-type (UniProt Q5S007 1-2527)
Assay: EMSA

LRRK2 wild-type, sequence (Q5S007 whole entry): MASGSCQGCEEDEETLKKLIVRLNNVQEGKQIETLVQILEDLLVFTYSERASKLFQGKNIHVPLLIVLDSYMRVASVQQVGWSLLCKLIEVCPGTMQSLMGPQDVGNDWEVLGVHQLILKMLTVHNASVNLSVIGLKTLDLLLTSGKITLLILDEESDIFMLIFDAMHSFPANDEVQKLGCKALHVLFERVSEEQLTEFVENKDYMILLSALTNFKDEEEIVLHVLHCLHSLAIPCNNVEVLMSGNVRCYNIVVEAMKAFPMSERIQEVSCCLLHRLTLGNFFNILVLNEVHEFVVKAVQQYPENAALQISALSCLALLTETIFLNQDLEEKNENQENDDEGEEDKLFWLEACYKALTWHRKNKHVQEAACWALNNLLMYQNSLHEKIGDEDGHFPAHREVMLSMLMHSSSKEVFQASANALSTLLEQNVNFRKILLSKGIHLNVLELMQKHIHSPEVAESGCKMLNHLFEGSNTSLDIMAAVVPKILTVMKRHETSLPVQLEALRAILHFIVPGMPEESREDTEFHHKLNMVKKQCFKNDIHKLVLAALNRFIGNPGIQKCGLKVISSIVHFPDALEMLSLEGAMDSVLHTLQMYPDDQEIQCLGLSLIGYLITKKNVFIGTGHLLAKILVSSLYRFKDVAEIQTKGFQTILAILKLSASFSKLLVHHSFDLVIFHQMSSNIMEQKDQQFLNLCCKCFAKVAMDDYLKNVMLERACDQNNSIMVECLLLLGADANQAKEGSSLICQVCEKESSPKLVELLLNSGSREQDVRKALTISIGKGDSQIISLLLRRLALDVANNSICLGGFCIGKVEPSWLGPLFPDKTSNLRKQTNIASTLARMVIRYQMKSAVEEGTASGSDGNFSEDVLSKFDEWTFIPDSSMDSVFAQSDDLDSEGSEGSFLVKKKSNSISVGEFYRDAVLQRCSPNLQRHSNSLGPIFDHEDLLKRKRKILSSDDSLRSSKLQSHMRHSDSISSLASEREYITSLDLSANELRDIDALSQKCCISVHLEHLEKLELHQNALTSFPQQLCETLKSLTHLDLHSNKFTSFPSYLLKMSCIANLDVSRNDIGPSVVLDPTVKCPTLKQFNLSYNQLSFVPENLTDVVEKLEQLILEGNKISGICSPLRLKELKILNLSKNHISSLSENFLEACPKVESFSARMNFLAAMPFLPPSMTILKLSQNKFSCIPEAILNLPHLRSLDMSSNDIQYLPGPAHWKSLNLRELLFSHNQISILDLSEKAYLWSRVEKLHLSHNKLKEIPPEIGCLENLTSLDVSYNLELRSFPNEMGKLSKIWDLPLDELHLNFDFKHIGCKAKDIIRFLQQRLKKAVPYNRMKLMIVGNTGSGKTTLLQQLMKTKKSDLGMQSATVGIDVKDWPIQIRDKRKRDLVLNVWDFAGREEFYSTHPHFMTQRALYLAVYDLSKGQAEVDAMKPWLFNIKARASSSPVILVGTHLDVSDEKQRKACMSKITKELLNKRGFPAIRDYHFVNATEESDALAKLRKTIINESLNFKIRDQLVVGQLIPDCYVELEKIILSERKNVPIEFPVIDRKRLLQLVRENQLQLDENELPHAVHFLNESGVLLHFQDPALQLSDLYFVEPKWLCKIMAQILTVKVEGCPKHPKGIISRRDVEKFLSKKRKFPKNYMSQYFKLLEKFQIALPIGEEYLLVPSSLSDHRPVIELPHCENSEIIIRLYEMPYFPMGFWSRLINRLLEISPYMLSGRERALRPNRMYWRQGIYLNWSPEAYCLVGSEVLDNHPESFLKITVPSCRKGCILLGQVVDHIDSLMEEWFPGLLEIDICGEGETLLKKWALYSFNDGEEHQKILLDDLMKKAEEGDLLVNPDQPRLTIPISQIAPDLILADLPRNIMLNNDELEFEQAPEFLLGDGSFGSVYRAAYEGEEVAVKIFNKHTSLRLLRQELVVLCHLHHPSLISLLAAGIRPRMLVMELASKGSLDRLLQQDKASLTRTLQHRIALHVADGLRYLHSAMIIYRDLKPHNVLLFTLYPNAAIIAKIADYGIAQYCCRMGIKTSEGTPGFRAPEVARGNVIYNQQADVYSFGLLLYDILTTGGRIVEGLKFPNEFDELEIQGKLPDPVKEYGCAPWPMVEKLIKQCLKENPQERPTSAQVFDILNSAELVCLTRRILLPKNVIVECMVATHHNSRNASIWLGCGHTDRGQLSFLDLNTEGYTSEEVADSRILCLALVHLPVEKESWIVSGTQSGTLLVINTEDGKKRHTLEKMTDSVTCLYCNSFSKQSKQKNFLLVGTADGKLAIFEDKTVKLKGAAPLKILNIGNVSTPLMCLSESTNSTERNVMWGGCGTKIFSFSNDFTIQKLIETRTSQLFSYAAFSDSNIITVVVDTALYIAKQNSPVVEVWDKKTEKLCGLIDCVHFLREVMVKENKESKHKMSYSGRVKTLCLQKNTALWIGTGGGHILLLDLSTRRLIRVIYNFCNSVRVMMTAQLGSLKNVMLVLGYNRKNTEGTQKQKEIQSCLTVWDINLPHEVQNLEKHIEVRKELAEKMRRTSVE

Binder	binding result
GGAAACAGUCAUUUGCGCACAACUUUAAAAGUCUGCAU (ssRNA) [BDNF 3'UTR control segment without neuronal ELAV sites]	no binding
AGAAAAAAUAUUUAUUGUAUUUUAGUAUAUUUAUAUAA (ssRNA) [BDNF 3'UTR neuronal ELAV binding segment (U-rich)]	no binding
